{"source": "paper PMC3849214", "test_system": "c1ccc([C@H]2CO2)cc1", "assay": "colorimetric periodate-coupled diol assay, A290, steady state", "assay_type": "biochemical, Streptomyces globisporus", "details": "pH 8.0, 50 mM sodium phosphate, 25 °C, 3 mM sodium periodate", "data": [{"substance": "SgcF (Streptomyces globisporus; Q237M)", "values": [{"measurement": "Km", "result": "4.1 ± 0.8", "unit": "mM"}, {"measurement": "kcat/Km", "result": 780, "unit": "M⁻¹ s⁻¹"}]}]}
